In US20180044385A1:

Key:
[1] = biological target: FabHS (a human 4D5 scaffold with residues PEELRTNK replacing light chain positions 122-129); experiment: protein ELISA
[2] = biological target: 4D5 Fab scaffold possessing a human IgG1 CH1 and a Kappa light chain; experiment: fluorescence polarization with Alexa-Fluor labeled Protein-G, pH varied
[3] = biological target: Fab with lambda light chain (Cλ); experiment: ELISA; reference is the Fab with kappa light chain
IgG2, IgG3 and IgG4 = experiment: method not stated (data not shown)
[4] = biological target: 4D5 Fab scaffold possessing a human IgG1 CH1 and a Kappa light chain; experiment: equilibrium SPR
[5] = biological target: 4D5 Fab scaffold possessing a human IgG1 CH1 and a Kappa light chain; experiment: SPR

| IC50 [1] [nM] | fold decrease in affinity from pH 7.5 to pH 4 [2] [fold] | fold loss of affinity between pH 5.5 and pH 4.0 [2] [fold] | EC50 ratio, Cλ Fab over CK Fab [3] [fold] | fold decrease in affinity relative to human IgG1 (IgG2, IgG3 and IgG4) [fold] | Kd [4] [nM] | fold higher affinity than wild-type Protein-G [5] [fold] | Binder |
| --- | --- | --- | --- | --- | --- | --- | --- |
| 100 | – | – | – | – | – | – | Protein-G-HS C7 (designed binder) MKGETTTEAVDAATAEKVFKQYANDNGVDGEWTYDDATKTFTVTEKPEVIDASELTPAVTTYKLVINGKTLKGETTTEAVDAATAEKVFKQYANDNGVDGEWTYDDATKTFTVTEKPEVIDASELTPAVTTYKLVINGRTLSGETTTKAVDAETAEKAFKQYAYGAVVDGVWTYDDATKTFTVTE |
| 8 | – | – | – | – | – | – | Protein-G-HS C6 (designed binder) MKGETTTEAVDAATAEKVFKQYANDNGVDGEWTYDDATKTFTVTEKPEVIDASELTPAVTTYKLVINGKTLKGETTTEAVDAATAEKVFKQYANDNGVDGEWTYDDATKTFTVTEKPEVIDASELTPAVTTYKLVINGRTLSGETTTKAVDAETAEKAFKQYSRPHVVDGVWTYDDATKTFTVTE |
| – | 1000 | 300 | > 5000 | 20 to 50 | 25 | 100 | Protein-G-A1 (designed binder) MKGETTTEAVDAATAEKVFKQYANDNGVDGEWTYDDATKTFTVTEKPEVIDASELTPAVTTYKLVINGRTLSGYTTTTAVDAATAEKVFKQYAYVHEVDGEWTYDDATKTFTVTEKPEVIDASELTPAVTTYKLVINGRTLSGETTTKAVDAETAEKAFKQYANDNGVDGVWTYDDATKTFTVTE |
